Test results: patent US20230265198A1 (TWIST BIOSCIENCE, published 2023)
Positions count from the first letter of the chain named. One block for each binder: values may come before it.

Target: T1, neuropilin-1 (NRP1) on HEK293 cells overexpressing NRP1 (UniProt O14786 22-923, limits assumed)
T1 construct: whole, on cells
Assay: flow cytometry, HEK293-NRP1 vs HEK293

B4: NRP1-85 (VHH)
VHH: EVQLVESGGGLVQPGGSLRLSCAASGSRFSGRFNILNMGWFRQAPGKERESVAAINWSGGTSTYYADSVKGRFTISADNSKNTAYLQMNSLKPEDTAVYYCAAGSNIGGSRWRYDWGQGTLVTVSS
100 nM FACS (MFI Ratio): 5

B6: NRP1-90 (VHH)
VHH: EVQLVESGGGLVQPGGSLRLSCAASGGIFSINDMGWFRQAPGKEREFVARITSGGSTNYADSVKGRFTISADNSKNTAYLQMNSLKPEDTAVYYCAKADYYDSSDFDSWGQGTLVTVSS
100 nM FACS (MFI Ratio): 1

B8: NRP1-93 (VHH)
VHH: EVQLVESGGGLVQPGGSLRLSCAASGIPFRSRTMGWFRQAPGKEREFVATINTGGGTYADSVKGRFTISADNSKNTAYLQMNSLKPEDTAVYYCARHGDTYYYGSGTVRSLDYWGQGTLVTVSS
100 nM FACS (MFI Ratio): 1.4

B10: NRP1-87 (VHH)
VHH: EVQLVESGGGLVQPGGSLRLSCAASGRIFTMGWFRQAPGKEREFVASITTDGNTLYADSVKGRFTISADNSKNTAYLQMNSLKPEDTAVYYCARWVGASAYHYGMDVWGQGTLVTVSS
100 nM FACS (MFI Ratio): 3.7

B11: NRP1-7 (VHH)
VHH: EVQLVESGGGLVQPGGSLRLSCAASGRIFIIYAMGWFRQAPGKERELVAAITRTGGRPCYADSVKGRFTISADNSKNTAYLQMNSLKPEDTAVYYCAARRMLSPEGAHPDWGQGTLVTVSS
100 nM FACS (MFI Ratio): 233

B12: NRP1-92 (VHH)
VHH: EVQLVESGGGLVQPGGSLRLSCAASGLLFSSYDMGWFRQAPGKEREFVAAITSGGRKNYADSVKGRFTISADNSKNTAYLQMNSLKPEDTAVYYCARYDYSGGLTFDYWGQGTLVTVSS
100 nM FACS (MFI Ratio): 6

B13: NRP1-88 (VHH)
VHH: EVQLVESGGGLVQPGGSLRLSCAASGGIFSRYDMGWFRQAPGKEREFVATITSTGDTYADSVKGRFTISADNSKNTAYLQMNSLKPEDTAVYYCARLGGNSEYYYYYGMDVWGQGTLVTVSS
100 nM FACS (MFI Ratio): 2.8

B14: NRP1-50 (VHH)
VHH: EVQLVESGGGLVQPGGSLRLSCAASGRTFNRYPMGWFRQAPGKEREWVAAISTSGGSTYYADSVKGRFTISADNSKNTAYLQMNSLKPEDTAVYYCAIHTSREIWGQGTLVTVSS
100 nM FACS (MFI Ratio): 5.9

B15: NRP1-45 (VHH)
VHH: B14 VHH with I51A, S52H, T53W, S57R, T58M, Y59W
100 nM FACS (MFI Ratio): 6.6

B16: NRP1-95 (VHH)
VHH: B14 VHH with V48I, A49S, I51L, S52A, T53P, S54G, S57N, T58R
100 nM FACS (MFI Ratio): 1.5

B17: NRP1-97 (VHH)
VHH: EVQLVESGGGLVQPGGSLRLSCAASGFDFDNFDDYAMGWFRQAPGKEREFVAEIGWRDTTLYADSVKGRFTISADNSKNTAYLQMNSLKPEDTAVYYCARGRYDLSDFDYWGQGTLVTVSS
100 nM FACS (MFI Ratio): 1.7

B21: NRP1-89 (VHH)
VHH: EVQLVESGGGLVQPGGSLRLSCAASGINFSRYGMGWFRQAPGKEREWVSAISSGGGSITTYADSVKGRFTISADNSKNTAYLQMNSLKPEDTAVYYCARHNSGWHFDYWGQGTLVTVSS
100 nM FACS (MFI Ratio): 1.8

B25: NRP1-72 (VHH)
VHH: EVQLVESGGGLVQPGGSLRLSCAASGRTFRRYAMGWFRQAPGKEREFVATISWSGALTHYADSVKGRFTISADNSKNTAYLQMNSLKPEDTAVYYCAAYQRGWGDWGQGTLVTVSS
100 nM FACS (MFI Ratio): 3

B26: NRP1-83 (VHH)
VHH: EVQLVESGGGLVQPGGSLRLSCAASGSIGREVAMGWFRQAPGKERELVATIWWTFDAPYYADSVKGRFTISADNSKNTAYLQMNSLKPEDTAVYYCAAYQAGWGDWGQGTLVTVSS
100 nM FACS (MFI Ratio): 6.9

B27: NRP1-74 (VHH)
VHH: B26 VHH with I28T, G29L, E31D, V32Y, A33T, L47F
100 nM FACS (MFI Ratio): 5.8

B29: NRP1-94 (VHH)
VHH: EVQLVESGGGLVQPGGSLRLSCAASGRTFSTYASMGWFRQAPGKEREFVARIWPGGSTYYADSVKGRFTISADNSKNTAYLQMNSLKPEDTAVYYCARQFGAWLGEVVGPMDVWGQGTLVTVSS
100 nM FACS (MFI Ratio): 2.8

B30: NRP1-98 (VHH)
VHH: EVQLVESGGGLVQPGGSLRLSCAASGLNLSRLDMGWFRQAPGKEREFVAAISWSGDSTNYADSVKGRFTISADNSKNTAYLQMNSLKPEDTAVYYCARIHKAPYYGMDVWGQGTLVTVSS
100 nM FACS (MFI Ratio): 1.2

B31: NRP1-17 (VHH)
VHH: EVQLVESGGGLVQPGGSLRLSCAASGRFSRINSMGWFRQAPGKERELVAAIMWSGGSTKYADSVKGRFTISADNSKNTAYLQMNSLKPEDTAVYYCAAGSPSRLVNMWQYNWGQGTLVTVSS
100 nM FACS (MFI Ratio): 1960

B32: NRP1-91 (VHH)
VHH: EVQLVESGGGLVQPGGSLRLSCAASGNIFINNAMGWFRQAPGKERELVAAITSSSGRRWYADSVKGRFTISADNSKNTAYLQMNSLKPEDTAVYYCAAGSPSRLVNMWQYNWGQGTLVTVSS
100 nM FACS (MFI Ratio): 2.7

B33: NRP1-41 (VHH)
VHH: B31 VHH with L47S, M52S, S54N, T58I, K59Y
100 nM FACS (MFI Ratio): 6.1

Now from value to binder:

100 nM FACS (MFI Ratio): 2.5
B1: NRP1-102 (VHH)
VHH: EVQLVESGGGLVQPGGSLRLSCAASGGTIRTMGWFRQAPGKEREFVATISWSGALTHYADSVKGRFTISADNSKNTAYLQMNSLKPEDTAVYYCAHRDNFWSAYYDFWGQGTLVTVSS

100 nM FACS (MFI Ratio): 5.2
B2: NRP1-120 (antibody, IgG2, V domains shown)
VH: EVQLLESGGGLVQPGGSLRLSCAASGFTFKSYGMHWVRQAPGKGLEWVSEISPSGKKKYYADSVKGRFTISRDNSKNTLYLQMNSLRAEDTAVYYCAAPNDQSAAFDYWGQGTLVTVSS
VL: DIQMTQSPSSLSASVGDRVTITCKASDHIGKFLTWYQQKPGKAPKLLIYPKHNRPPGVPSRFSGSGSGTDFTLTISSLQPEDFATYYCQQSYDNPLTFGQGTKVEIK

100 nM FACS (MFI Ratio): 0.7
B3: NRP1-111 (VHH)
VHH: EVQLVESGGGLVQPGGSLRLSCAASGIAFRIRTMGWFRQAPGKERELVAAITSSSGRRWYADSVKGRFTISADNSKNTAYLQMNSLKPEDTAVYYCAARRIVNVEGAYRDWGQGTLVTVSS

100 nM FACS (MFI Ratio): 2.8
B5: NRP1-107 (VHH)
VHH: EVQLVESGGGLVQPGGSLRLSCAASGRTFSNSGMGWFRQAPGKEREFVAAISWNGGTTNYADSVKGRFTISADNSKNTAYLQMNSLKPEDTAVYYCATLGGTVSGSHWSYFYYMDVWGQGTLVTVSS

100 nM FACS (MFI Ratio): 0.7
B7: NRP1-112 (VHH)
VHH: EVQLVESGGGLVQPGGSLRLSCAASGNIFINNAMGWFRQAPGKERELVAAITSSSGRRWYADSVKGRFTISADNSKNTAYLQMNSLKPEDTAVYYCAAYQRGWGDWGQGTLVTVSS

100 nM FACS (MFI Ratio): 6.2
B9: NRP1-103 (VHH)
VHH: EVQLVESGGGLVQPGGSLRLSCAASGRTLSRYTMGWFRQAPGKERELVATITSGGSTGYADSVKGRFTISADNSKNTAYLQMNSLKPEDTAVYYCAKDKWGVRGEFDSWGQGTLVTVSS

100 nM FACS (MFI Ratio): 2.4
B18: NRP1-101 (VHH)
VHH: EVQLVESGGGLVQPGGSLRLSCAASGRNRYGMGWFRQAPGKEREFVAAISRSGGSTNYADSVKGRFTISADNSKNTAYLQMNSLKPEDTAVYYCAKGGAQNYTWGQGTLVTVSS

100 nM FACS (MFI Ratio): 3.3
B19: NRP1-110 (VHH)
VHH: EVQLVESGGGLVQPGGSLRLSCAASGRTFSNYSMGWFRQAPGKEREFVASIWWTFDAPYYADSVKGRFTISADNSKNTAYLQMNSLKPEDTAVYYCAKWDGLGTLWGQGTLVTVSS

100 nM FACS (MFI Ratio): 0.9
B20: NRP1-108 (VHH)
VHH: EVQLVESGGGLVQPGGSLRLSCAASGNIPPINAMGWFRQAPGKEREWVATITSGGSTTYADSVKGRFTISADNSKNTAYLQMNSLKPEDTAVYYCARDRYFYDTSGNQRSSWFDPWGQGTLVTVSS

100 nM FACS (MFI Ratio): 6.2
B22: NRP1-104 (VHH)
VHH: EVQLVESGGGLVQPGGSLRLSCAASGFSFDDYVMGWFRQAPGKEREFVARISTSGSWTGYADSVKGRFTISADNSKNTAYLQMNSLKPEDTAVYYCAINYSPGYPDHWGQGTLVTVSS

100 nM FACS (MFI Ratio): 0.4
B23: NRP1-113 (VHH)
VHH: EVQLVESGGGLVQPGGSLRLSCAASGHTFRGDVMGWFRQAPGKEREFVASISGSGTRTLYADSVKGRFTISADNSKNTAYLQMNSLKPEDTAVYYCARDVEGGWYGLSYGMDVWGQGTLVTVSS

100 nM FACS (MFI Ratio): 2.1
B24: NRP1-109 (VHH)
VHH: EVQLVESGGGLVQPGGSLRLSCAASGRTSRSYDMGWFRQAPGKEREFVASIDQSGESTAYADSVKGRFTISADNSKNTAYLQMNSLKPEDTAVYYCARADYYGSGSYFDYWGQGTLVTVSS

100 nM FACS (MFI Ratio): 1200
B28: NRP1-124 (antibody, IgG2, V domains shown)
VH: EVQLLESGGGLVQPGGSLRLSCAASGFDFSDYEMSWVRQAPGKGLEWVSRISVAGRRTAYADSVKGRFTISRDNSKNTLYLQMNSLRAEDTAVYYCAKGRRKLRATRFDYWGQGTLVTVSS
VL: DIQMTQSPSSLSASVGDRVTITCSGDKLRNKYASWYQQKPGKAPKLLIYETSKLASGVPSRFSGSGSGTDFTLTISSLQPEDFATYYCQQSFSVPAFGQGTKVEIK
